By stoichiometry N is commonly meant a count of units in the complex or per binding partner.

The values that follow come from publication PMC7026663.

Experiment [1] addresses GST-tagged AtFKBP53 NTD (Arabidopsis thaliana).
The target in experiment [2] is AtFKBP53 NTD (residues 1–112) (Arabidopsis thaliana) (UniProt Q93ZG9). The experiment in a line: AUC.
For experiment [3], the target named is nucleosome core particle (NCP). The experiment in a line: AUC.
For experiment [4], the target named is nucleosome core particle (NCP). In words: ITC. (ITC needs no label: the signal is the heat of the interaction.)
Experiment [5] deals with nucleosome core particle (NCP). The experiment in a line: native gel or EMSA. (Mobility shift assays separate free from complexed probe on a gel.)

AtFKBP53 NTD (residues 1–112), sequence (Q93ZG9 1-112): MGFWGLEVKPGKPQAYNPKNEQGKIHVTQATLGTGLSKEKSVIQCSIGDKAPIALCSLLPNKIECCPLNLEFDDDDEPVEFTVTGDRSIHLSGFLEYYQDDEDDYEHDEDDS
AtFKBP53 NTD (residues 1–112) (Arabidopsis thaliana), sequence (Q93ZG9 1-112): as above
GST-tagged AtFKBP53 NTD (domain or fragment), sequence (Q93ZG9 whole entry, the tested form may be a part): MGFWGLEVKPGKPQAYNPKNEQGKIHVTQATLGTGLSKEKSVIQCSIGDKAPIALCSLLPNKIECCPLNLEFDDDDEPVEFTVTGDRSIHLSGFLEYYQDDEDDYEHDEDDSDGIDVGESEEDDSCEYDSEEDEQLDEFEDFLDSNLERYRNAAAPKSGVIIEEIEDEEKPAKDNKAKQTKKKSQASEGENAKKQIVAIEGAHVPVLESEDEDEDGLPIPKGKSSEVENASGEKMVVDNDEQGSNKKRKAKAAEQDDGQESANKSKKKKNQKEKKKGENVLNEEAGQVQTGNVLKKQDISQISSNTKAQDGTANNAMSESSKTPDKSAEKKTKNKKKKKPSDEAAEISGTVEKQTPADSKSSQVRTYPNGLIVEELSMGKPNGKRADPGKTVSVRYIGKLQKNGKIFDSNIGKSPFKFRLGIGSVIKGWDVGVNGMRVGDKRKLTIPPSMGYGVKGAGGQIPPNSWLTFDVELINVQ

In experiment [1], “GST-tagged AtFKBP53 NTD (domain or fragment)” registered a stoichiometry N of 2.

For “H2A/H2B dimer (from UniProt P06897;P02281) (complex)”, the stoichiometry N (H2A/H2B dimer per NTD pentamer) in experiment [2] was determined as 1.

With “AtFKBP53 NTD (residues 1–112) (from UniProt Q93ZG9 1-112) (domain or fragment)”, in experiment [3], the stoichiometry N (NTD pentamers per NCP) is 2. In experiment [4], this substance had a Kd1 (first site, sequential binding model) of 0.18 µM; a Kd2 (second site, sequential binding model) of 2.72 µM; a stoichiometry N (binding sites on NCP) of 2. In experiment [5], the stoichiometry N (NTD pentamers per NCP) was 2.

Consider “H3/H4 tetramer (from UniProt P84233;P62799) (complex)”, for which the stoichiometry N (H3/H4 tetramer per NTD pentamer) in experiment [2] was found to be 1.
